Values joined by “and” are separate entries in the source; they are usually repeats but may differ in a detail not shown here. Equal values may be shown once.
How the values were obtained:
Type in all cases: biochemical
[1] = target: BRISC BRCC45 D248R (Homo sapiens, UniProt P46736+Q15018+Q9NXR7, D248R); assay: BRISC mutant IQF assay: BRCC45 D248R
Description: (§1) IQF assays were performed in DUB reaction buffer containing 50 mM HEPES–NaOH pH 7.0, 100 mM NaCl, 0.1 mg ml^−1 BSA, 1 mM DTT and 0.03% v/v Brij-35. […] The final concentration of BRISC WT, all BRISC mutants, HsBRISCΔLoop, MmBRISC and DrBRISCΔNΔC was 1 nM. Other enzymes were tested at the following concentrations: 5 nM ARISC (FL), 10 nM CfBRISCΔNΔC, 250 nM AMSH* (ref. [43]), 500 nM USP2 and 1 μM trypsin (Sigma, 9002-07-7). For Michaelis–Menten experiments, 1 nM BRISC with 0–1 μM IQF K63-linked diubiquitin substrate was used. Michaelis–Menten analyses and Lineweaver–Burk plots were calculated using GraphPad Prism (version 9.0).
(§2) To assess enzymatic activity, BRISC complexes were diluted to concentrations between 1 nM and 50 nM. […] Then, 20-μl enzyme reactions were carried out in 384-well black flat-bottom low-flange plates (Corning, 35373). DUB activity was measured using IQF K63-linked diubiquitin (LifeSensors, DU6303) at 50 nM. Cleaved diubiquitin was monitored by measuring fluorescence intensity (excitation, 544 nm; emission, 575 nm; dichroic mirror, 560 nm). Fluorescence intensity was measured every minute for 30 min at 30 °C. Fluorescence intensity units were plotted against time to generate a linear reaction progress curve, where the initial velocity (V0) corresponds to the gradient of the curve (typically achieved within 15 min). IC50 values were calculated using the GraphPad Prism (version 9.0) built-in dose–response equation for inhibitor concentration versus response (variable slope).

[2] = target: BRISC BRCC36 L169A (Homo sapiens, UniProt P46736+Q15018+Q9NXR7, L169A); assay: BRISC mutant IQF assay: BRCC36 L169A
Description: as §1, §2

[3] = target: BRISC BRCC45 F140A (Homo sapiens, UniProt P46736+Q15018+Q9NXR7, F140A); assay: BRISC mutant IQF assay: BRCC45 F140A
Description: as §1, §2

[4] = target: BRISC BRCC45 C245A (Homo sapiens, UniProt P46736+Q15018+Q9NXR7, C245A); assay: BRISC mutant IQF assay: BRCC45 C245A
Description: as §1, §2

[5] = target: BRISC Abraxas2 T140A (Homo sapiens, UniProt P46736+Q15018+Q9NXR7, T140A); assay: BRISC mutant IQF assay: Abraxas2 T140A; conditions: for Normalised V0: Abraxas2 T140A
Description: as §1, §2

[6] = target: T1, BRISC (Homo sapiens, UniProt P46736+Q15018+Q9NXR7); assay: BRISC DUB activity assay (IQF K63-linked diubiquitin); conditions: BRISC WT
T1 construct: made in house; host or cells: Spodoptera frugiperda (Sf9) insect cells, MultiBac
Description: as §1, §2

[7] = target: BRISC BRCC45 R137A (Homo sapiens, UniProt P46736+Q15018+Q9NXR7, R137A); assay: BRISC mutant IQF assay: BRCC45 R137A
Description: as §1, §2

[8] = target: BRISC BRCC36 W130A (Homo sapiens, UniProt P46736+Q15018+Q9NXR7, W130A); assay: BRISC mutant IQF assay: BRCC36 W130A
Description: as §1, §2

B1: SHMT2: serine hydroxymethyltransferase 2, metabolic enzyme and endogenous inhibitor of BRISC DUB activity (protein)
chain: QLVRMAIRAQHSNAAQTQTGEANRGWTGQESLSDSDPEMWELLQREKDRQCRGLELIASENFCSRAALEALGSCLNNKYSEGYPGKRYYGGAEVVDEIELLCQRRALEAFDLDPAQWGVNVQPYSGSPANLAVYTALLQPHDRIMGLDLPDGGHLTHGYMSDVKRISATSIFFESMPYKLNPKTGLIDYNQLALTARLFRPRLIIAGTSAYARLIDYARMREVCDEVKAHLLADMAHISGLVAAKVIPSPFKHADIVTTTTHKTLRGTRSGLIFYRKGVKAVDPKTGREIPYTFEDRINFAVFPSLQGGPHNHAIAAVAVALKQACTPMFREYSLQVLKNARAMADALLERGYSLVSGGTDNHLVLVDLRPKGLDGARAERVLELVSITANKNTCPGDRSAITPGGLRLGAPALTSRQFREDDFRRVVDFIDEGVNIGLEVKSKTAKLQDFKSFLLKDSETSQRLANLRQRVEQFARAFPMPGFDEH
- Normalised V0 ([1]; SHMT2 0.00347222 nM): 0.9357 and 1.056 and 1.018
- Normalised V0 ([1]; SHMT2 0.0347222 nM): 0.8867 and 1.018 and 0.9695
- Normalised V0 ([1]; SHMT2 0.347222 nM): 0.882 and 0.7691 and 0.9453
- Normalised V0 ([1]; SHMT2 1.04167 nM): 0.8534 and 1.006 and 0.8339
- Normalised V0 ([1]; SHMT2 3.125 nM): 0.5795 and 0.5378 and 0.6917
- Normalised V0 ([1]; SHMT2 6.25 nM): 0.5339 and 0.4364 and 0.5979
- Normalised V0 ([1]; SHMT2 12.5 nM): 0.3281 and 0.3163 and 0.4228
- Normalised V0 ([1]; SHMT2 25 nM): 0.3612 and 0.2677 and 0.38
- Normalised V0 ([1]; SHMT2 200 nM): 0.05731 and 0.07178 and 0.09996
- SHMT2 inhibition of BRISC mutant [2]: reduced BRISC inhibition by SHMT2
- Normalised V0 ([2]; SHMT2 0.00347222 nM): 1.281 and 0.8219 and 0.8866
- Normalised V0 ([2]; SHMT2 0.0347222 nM): 1.039 and 0.8402 and 0.9713
- Normalised V0 ([2]; SHMT2 0.347222 nM): 1.104 and 0.8836 and 0.9494
- Normalised V0 ([2]; SHMT2 1.04167 nM): 1.083 and 0.823 and 0.89
- Normalised V0 ([2]; SHMT2 3.125 nM): 0.9817 and 0.7218 and 0.8098
- Normalised V0 ([2]; SHMT2 6.25 nM): 1.047 and 0.8687 and 0.8472
- Normalised V0 ([2]; SHMT2 12.5 nM): 0.7117 and 0.4856 and 0.677
- Normalised V0 ([2]; SHMT2 25 nM): 0.5132 and 0.7026 and 0.4911
- Normalised V0 ([2]; SHMT2 50 nM): 0.4474 and 0.4092 and 0.7591
- Normalised V0 ([3]; SHMT2 0.00347222 nM): 0.9456 and 0.9686 and 0.8245
- Normalised V0 ([3]; SHMT2 0.0347222 nM): 0.8694 and 1.026 and 0.8239
- Normalised V0 ([3]; SHMT2 0.347222 nM): 0.9307 and 0.9114 and 0.8975
- Normalised V0 ([3]; SHMT2 1.04167 nM): 0.8692 and 0.886 and 0.7736
- Normalised V0 ([3]; SHMT2 3.125 nM): 0.8001 and 0.6891 and 0.7189
- Normalised V0 ([3]; SHMT2 6.25 nM): 0.7321 and 0.6833 and 0.7086
- Normalised V0 ([3]; SHMT2 12.5 nM): 0.4577 and 0.4521 and 0.5184
- Normalised V0 ([3]; SHMT2 25 nM): 0.3014 and 0.3302 and 0.288
- Normalised V0 ([3]; SHMT2 50 nM): 0.2533 and 0.2485 and 0.2535
- Normalised V0 ([3]; SHMT2 100 nM): 0.2137 and 0.184 and 0.161
- Normalised V0 ([4]; SHMT2 0.00347222 nM): 0.9588 and 1.144 and 1.038
- Normalised V0 ([4]; SHMT2 0.0347222 nM): 0.8809 and 1.071 and 0.9852
- Normalised V0 ([4]; SHMT2 0.347222 nM): 0.7622 and 1.011 and 1.053
- Normalised V0 ([4]; SHMT2 1.04167 nM): 0.7409 and 0.9691 and 1.004
- Normalised V0 ([4]; SHMT2 3.125 nM): 0.5581 and 0.7111 and 0.7493
- Normalised V0 ([4]; SHMT2 6.25 nM): 0.4848 and 0.6695 and 0.6719
- Normalised V0 ([4]; SHMT2 12.5 nM): 0.4215 and 0.5643 and 0.477
- Normalised V0 ([4]; SHMT2 25 nM): 0.501 and 0.3965 and 0.329
- Normalised V0 ([4]; SHMT2 50 nM): 0.391 and 0.3153 and 0.2153
- Normalised V0 ([4]; SHMT2 100 nM): 0.3584 and 0.2521 and 0.1837
- Normalised V0 ([4]; SHMT2 200 nM): 0.2257 and 0.1737 and 0.1153
- SHMT2 inhibition of BRISC mutant ([5]; Abraxas 2 T140A): reduced BRISC inhibition by SHMT2
- Normalised V0 ([5]; SHMT2 0.00347222 nM): 0.9459 and 1.003 and 1.126
- Normalised V0 ([5]; SHMT2 0.0347222 nM): 0.9478 and 0.9048 and 1.065
- Normalised V0 ([5]; SHMT2 0.347222 nM): 1.002 and 0.9158 and 1.209
- Normalised V0 ([5]; SHMT2 1.04167 nM): 0.9422 and 0.8854 and 1.017
- Normalised V0 ([5]; SHMT2 3.125 nM): 0.7382 and 0.7698 and 1.0401
- Normalised V0 ([5]; SHMT2 6.25 nM): 0.8737 and 0.7897 and 1.032
- Normalised V0 ([5]; SHMT2 12.5 nM): 0.7421 and 0.6608 and 0.8191
- Normalised V0 ([5]; SHMT2 25 nM): 0.6241 and 0.5064 and 0.8208
- Normalised V0 ([5]; SHMT2 100 nM): 0.3175 and 0.5076
- Normalised V0 ([5]; SHMT2 200 nM): 0.2755 and 0.2287 and 0.3324
- Normalised V0 ([6]; SHMT2 0.00347222 nM): 0.9504 and 1.044 and 0.9816
- Normalised V0 ([6]; SHMT2 0.0347222 nM): 0.8685 and 1.128 and 1.002
- Normalised V0 ([6]; SHMT2 0.347222 nM): 0.5106 and 0.9767 and 0.8269
- Normalised V0 ([6]; SHMT2 1.04167 nM): 0.4439 and 0.8387 and 0.81
- Normalised V0 ([7]; SHMT2 0.00347222 nM): 1.014 and 1.027 and 1.065
- Normalised V0 ([7]; SHMT2 0.0347222 nM): 1.097 and 0.9804 and 1.087
- Normalised V0 ([7]; SHMT2 0.347222 nM): 0.9721 and 1.019 and 0.9944
- Normalised V0 ([7]; SHMT2 1.04167 nM): 0.7112 and 0.6836 and 0.8504
- Normalised V0 ([7]; SHMT2 3.125 nM): 0.4073 and 0.4138 and 0.6039
- Normalised V0 ([7]; SHMT2 6.25 nM): 0.3218 and 0.2523 and 0.3959
- Normalised V0 ([7]; SHMT2 12.5 nM): 0.1807 and 0.195 and 0.2065
- Normalised V0 ([7]; SHMT2 25 nM): 0.1093 and 0.1844 and 0.1637
- Normalised V0 ([7]; SHMT2 50 nM): 0.06765 and 0.12 and 0.1128
- Normalised V0 ([7]; SHMT2 100 nM): 0.03288 and 0.04915 and 0.05253
- SHMT2 inhibition of BRISC BRCC45 mutants ([7]; b47 speaks of all BRCC45 mutants): without affecting SHMT2 inhibition
- SHMT2 inhibition of BRISC mutant [8]: reduced BRISC inhibition by SHMT2
- Normalised V0 ([8]; SHMT2 0.00347222 nM): 1.237 and 1.127 and 0.9914
- Normalised V0 ([8]; SHMT2 0.0347222 nM): 1.202 and 1.0039 and 1.016
- Normalised V0 ([8]; SHMT2 0.347222 nM): 1.306 and 1.037 and 1.029
- Normalised V0 ([8]; SHMT2 1.04167 nM): 1.133 and 0.9683 and 1.009
- Normalised V0 ([8]; SHMT2 3.125 nM): 1.059 and 0.8824 and 0.9607
- Normalised V0 ([8]; SHMT2 6.25 nM): 1.076 and 0.9844 and 0.926
- Normalised V0 ([8]; SHMT2 12.5 nM): 0.9633 and 0.8672 and 0.8727
- Normalised V0 ([8]; SHMT2 25 nM): 0.8129 and 0.833 and 0.8407
- Normalised V0 ([8]; SHMT2 50 nM): 0.7117 and 0.7254 and 0.8132
- Normalised V0 ([8]; SHMT2 100 nM): 0.5212 and 0.5553 and 0.3708
- Normalised V0 ([8]; SHMT2 200 nM): 0.4561 and 0.482 and 0.3879

— publication PMC7617869, “Molecular glues that inhibit deubiquitylase activity and inflammatory signaling” (Nature Structural & Molecular Biology, 2025)
